Laboratory results reported in patent US20240101668A1 (WUGEN, published 2024).
Substitutions are numbered along the chain they refer to.

B1: Polypeptide No. 256 (scFv, V domains shown)
VH: QVQLVQSGAEVKKPGASVKVSCKASGYTFATYYLHWVRQAPGQGLEWMGMINPSGGSTIYAQKFQGRVTMTRDTSTSTVYMELSSLRSEDTAVYYCARSSGYDFFDYWGQGTLVTVSS
VL: DIQMTQSPSSLSASVGDRVTITCRASHDINNYLNWYQQKPGKAPKLLIYDASNLETGVPSRFSGSGSGTDFTLTISSLQPEDFATYYCQQADSFPLTFGGGTKVEIKR
notes: scFv
B2: Polypeptide No. 270 (scFv, V domains shown)
VH: QVQLVQSGAEVKKPGASVKVSCKASGGTFSSYYMHWVRQAPGQGLEWMGWISAYNGNTNYAQKLQGRVTMTRDTSTSTVYMELSSLRSEDTAVYYCAKDMGYYYDSSGGFDYWGQGTLVTVSS
VL: B1 VL with H27Q, D28S, N30S, N31S, A91T, D92Y, S93T, F94T, G100Q
notes: scFv
B3: Polypeptide No. 290 (scFv, V domains shown)
VH: B2 VH with S30T, N57K, N59D, L64F, K98R, M100Q, G109A, Y112I
VL: B1 VL with H27Q, D28S, N30S, N31S, A91T, D92Y, F94A, L96P, G100Q, V104L
notes: scFv
B4: Polypeptide No. 283 (scFv, V domains shown)
VH: QVQLVQSGAEVKKPGASVKVSCKASGYTFTSYYMDWVRQAPGQGLEWMGRINPSSGSTTYVQKFQGRVTMTRDTSTSTVYMELSSLRSEDTAVYYCARTPSGSYSDFDYWGQGTLVTVSS
VL: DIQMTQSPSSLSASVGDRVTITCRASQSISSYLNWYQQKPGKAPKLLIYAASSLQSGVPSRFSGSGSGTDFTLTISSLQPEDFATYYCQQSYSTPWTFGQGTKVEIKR
notes: scFv
B5: Polypeptide No. 262 (scFv, V domains shown)
VH: QVQLVQSGAEVKKPGASVKVSCKASGFTFSDYGYYMHWVRQAPGQGLEWMGWMDPSSGHTGYAQRFQGRVTMTRDTSTSTVYMELSSLRSEDTAVYYCAKDIGWGAFDIWGQGTTVTVSS
VL: EIVMTQSPATLSVSPGERATLSCRASQRVGNTYLAWYQQKPGQAPRLLIYDVSARASGIPARFSGSGSGTEFTLTISSLQSEDFAVYYCQQYLSPPLTFGGGTKVEIKR
notes: scFv
B6: Polypeptide No. 269 (scFv, V domains shown)
VH: QVQLVQSGAEVKKPGASVKVSCKASGGSFSSYALHWVRQAPGQGLEWMGLINPSGGRTSYAQKFQGRVTMTRDTSTSTVYMELSSLRSEDTAVYYCARDEGYATFDYWGQGTLVTVSS
VL: B5 VL with R28S, V29I, G30S, N31S, T32S, S57T, L93Y, P95T, G101P, E106D
notes: scFv
B7: Polypeptide No. 293 (scFv, V domains shown)
VH: QVQLVQSGAEVKKPGSSVKVSCKASGYMFTTPYIHWVRQAPGQGLEWMGVINPISGTTTYAQKFQGRVTITADESTSTAYMELSSLRSEDTAVYYCANDRHYDFWSGYYKEEWEYFQHWGQGTLVTVSS
VL: not shown
notes: scFv
B8: Polypeptide No. 280 (scFv, V domains shown)
VH: QVQLVQSGAEVKKPGASVKVSCKASGYTFTRYYMHWVRQAPGQGLEWMGIINPSGGSTSYAQKFQGRVTMTRDTSTSTVYMELSSLRSEDTAVYYCARGETRSYAPYGMDVWGQGTTVTVSS
VL: DIQMTQSPSSLSASVGDRVTITCQASQDISNYLNWYQQKPGKAPKLLIYQASNKDTGVPSRFSGSGSGTDFTLTISSLQPEDFATYYCQQSYSTPPTFGQGTKLEIKR
notes: scFv
B9: Polypeptide No. 288 (scFv, V domains shown)
VH: QVQLVQSGAEVKKPGASVKVSCKASGYTFTTYDINWVRQAPGQGLEWMGWMNPSSGNSGFAQQFQGRVTMTRDTSTSTVYMELSSLRSEDTAVYYCAREDYYDSSGYYNWGQGTLVTVSS
VL: B8 VL with Q24R, D28G, Y32N, Q50K, N53T, K54L, D55E, T56S, P96I, L104V
notes: scFv
B10: Polypeptide No. 253 (scFv, V domains shown)
VH: QVQLVQSGAEVKKPGSSVKVSCKASGYTFTTYFMHWVRQAPGQGLEWMGGIVPVFGTTKYAQKFQGRVTITADESTSTAYMELSSLRSEDTAVYYCASSAVGWFDPWGQGTLVTVSS
VL: DIQMTQSPSSLSASVGDRVTITCRASQDISRWLAWYQQKPGKAPKLLIYAASSLQSGVPSRFSGSGSGTDFTLTISSLQPEDFATYYCQQYDNFPLTFGGGTKLEIKR
notes: scFv
B11: Polypeptide No. 284 (scFv, V domains shown)
VH: B8 VH with R31S, I50V, S59T, G99V, E100P, T101G, R102V, Y104P, A105G, P106D
VL: B10 VL with Q27H, D28N, R31T, Y91S, D92Y, N93S, F94T, L96P, G100Q, K103R
notes: scFv
B12: Polypeptide No. 257 (scFv, V domains shown)
VH: QVQLVQSGAEVKKPGASVKVSCKASGYTFTNYFMHWVRQAPGQGLEWMGIINPSGGSTSYAQKFQGRVTMTRDTSTSTVYMELSSLRSEDTAVYYCARAHTVYYYGMDVWGQGTMVTVSS
VL: B10 VL with D28S, R31S, S53T, Y91S, D92Y, N93S, F94T, L96W, G100Q
notes: scFv
B13: Polypeptide No. 287 (scFv, V domains shown)
VH: QVQLVQSGAEVKKPGASVKVSCKASGYTFTRHYVHWVRQAPGQGLEWVGIINPSSGSASYAQKFQGRVTMTRDTSTSTVYMELSSLRSEDTAVYYCARDRLRSRFDYWGQGTLVTVSS
VL: B10 VL with D28S, R31S, W32S, Y91S, D92Y, N93T, F94I, L96P, G100Q
notes: scFv
B14: Polypeptide No. 254 (scFv, V domains shown)
VH: QVQLVQSGAEVKKPGASVKVSCKASGYTFTSHYMHWVRQAPGQGLEWMGWISPYNGNTNYAQKLQGRVTMTRDTSTSTVYMELSSLRSEDTAVYYCARGESNSGWINFDYWGQGTLVTVSS
VL: EIVMTQSPATLSVSPGERATLSCRASQSVSSSSLAWYQQKPGQAPRLLIYDTSTRATGIPARFSGSGSGTEFTLTISSLQSEDFAVYYCQQYGTSPITFGQGTRLEIKR
notes: scFv
B15: Polypeptide No. 273 (scFv, V domains shown)
VH: QVQLVQSGAEVKKPGSSVKVSCKASGDTFNSYAVNWVRQAPGQGLEWMGGIIPSFGTPTYAWKFQGRVTITADESTSTAYMELSSLRSEDTAVYYCASVSYGSFDYWGQGTLVTVSS
VL: B14 VL with T52A, T57S, G93N, T94R, S95L, I97Y, R104K
notes: scFv
B16: Polypeptide No. 265 (scFv, V domains shown)
VH: QVQLVQSGAEVKKPGSSVKVSCKASGHTFTSDYMHWVRQAPGQGLEWMGRIIPIFGTADYAQKFQGRVTITADESTSTAYMELSSLRSEDTAVYYCARDDSSGIFDYWGQGTLVTVSS
VL: B14 VL with S30N, S32E, S33H, T54S, T94S, I97V, R104K, L105V
notes: scFv
B17: Polypeptide No. 259 (scFv, V domains shown)
VH: QVQLVQSGAEVKKPGSSVKVSCKASGYTFTSSEINWVRQAPGQGLEWMGGIHPMFGTTNYAQKFQGRVTITADESTSTAYMELSSLRSEDTAVYYCARARLMVYAPSDYWGQGTLVTVSS
VL: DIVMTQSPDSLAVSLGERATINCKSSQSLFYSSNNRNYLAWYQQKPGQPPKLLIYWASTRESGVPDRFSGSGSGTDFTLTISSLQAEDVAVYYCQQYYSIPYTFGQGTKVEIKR
notes: scFv
B18: Polypeptide No. 249 (scFv, V domains shown)
VH: QVQLVQSGAEVKKPGASVKVSCKASGYTFTSDGISWVRQAPGQGLEWMGWMNPNSGNAGYAQKFQGRVTMTRDTSTSTVYMELSSLRSEDTAVYYCATAVAGTDAFDIWGQGTMVTVSS
VL: EIVMTQSPATLSVSPGERATLSCRASQSIGNNLKAWYQQKPGQAPRLLIYDTSAHTTGIPARFSGSGSGTEFTLTISSLQSEDFAVYYCQHYGNSLTFGQGTKVEIK
notes: scFv
B19: Polypeptide No. 278 (scFv, V domains shown)
VH: QVQLVQSGAEVKKPGASVKVSCKASGYTFTSYYMHWVRQAPGQGLEWMGIINPSSGSTTYAQKFQGRVTMTRDTSTSTVYMELSSLRSEDTAVYYCARSVGATSAFDIWGQGTMVTVSS
VL: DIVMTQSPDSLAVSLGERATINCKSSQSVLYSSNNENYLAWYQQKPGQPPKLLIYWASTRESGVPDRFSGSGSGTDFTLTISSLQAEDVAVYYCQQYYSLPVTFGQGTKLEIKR
notes: scFv
B20: Polypeptide No. 292 (scFv, V domains shown)
VH: QVQLVQSGAEVKKPGASVKVSCKASGYTFTSYGISWVRQAPGQGLEWMGWINPNSGGTNYAQKFQGRVTMTRDTSTSTVYMELSSLRSEDTAVYYCARQGGLRDFDYWGQGTLVTVSS
VL: DIQMTQSPSSLSASVGDRVTITCRASQSISTYVNWYQQKPGKAPKLLIYDTSSLQSGVPSRFSGSGSGTDFTLTISSLQPEDFATYYCQQSFITPPTFGQGTKLEIKR
notes: scFv
B21: Polypeptide No. 260 (scFv, V domains shown)
VH: QVQLVQSGAEVKKPGASVKVSCKASGYTFTNYYVHWVRQAPGQGLEWMGMINPSGGSTNYAQKFQGRVTMTRDTSTSTVYMELSSLRSEDTAVYYCARVSGWKRGWFDPWGQGTLVTVSS
VL: DIQMTQSPSSLSASVGDRVTITCRSSQSISTYLNWYQQKPGKAPKLLIYGASNLQSGVPSRFSGSGSGTDFTLTISSLQPEDFATYYCQQVISYPITFGGGTKVEIKR
notes: scFv

target: T1, huFLT3-T227 stably expressed on Ramos cells (human, UniProt P36888 27-993); test: FACS on cells
T1 construct: whole, on cells; also called FLT3 WT
Protocol: (§1) For FLT3, Ramos cells were engineered to stably express either the huFLT3-T227 or huFLT3-M227 variant at >200,000 receptors per cell. Parental, huFLT3-T227, and huFLT3-M227 Ramos cell lines were stained with differing levels of CellTrace Violet Cell Proliferation Kit (ThermoFisher, cat. #C34557) to barcode each cell line. Barcoded Ramos cell lines were fixed with paraformaldehyde and incubated with myc-labeled scFv periplasmic extracts and a secondary anti-myc PE-conjugated monoclonal antibody. Appropriate positive and negative controls were used. Stained cells were analyzed by flow cytometry (CytoFLEX, Beckman Coulter, Inc.) and binding was assessed by change in PE mean fluorescence intensity (MFI) of the barcoded cell populations.

FACS geometric mean fold change over Jurkat parental [fold]	Binder
> 30	B1
10 to 30	B2
10 to 30	B3
> 30	B4
10 to 30	B5
10 to 30	B6
2 to 10	B7
> 30	B8
2 to 10	B9
2 to 10	B10
> 30	B11
10 to 30	B12
10 to 30	B13
10 to 30	B14
10 to 30	B15
10 to 30	B16
10 to 30	B17
2 to 10	B18
> 30	B19
2 to 10	B20
> 30	B21

target: T2, huFLT3-M227 stably expressed on Ramos cells (human, UniProt P36888 27-993); test: FACS on cells
T2 construct: whole, on cells; also called FLT3 Mutant
Protocol: as §1

FACS geometric mean fold change over Jurkat parental [fold]	Binder
> 30	B1
10 to 30	B2
10 to 30	B3
> 30	B4
10 to 30	B5
10 to 30	B6
2 to 10	B7
> 30	B8
10 to 30	B9
2 to 10	B10
> 30	B11
10 to 30	B12
2 to 10	B13
2 to 10	B14
10 to 30	B15
10 to 30	B16
10 to 30	B17
2 to 10	B18
> 30	B19
2 to 10	B20
> 30	B21
